Key:
Conditions in all cases: protein: native; label: Au NP (about 58 nm) via thiol
[1] = biological target: T1, EpCAM (on MDA-MB-231 exosomes) (UniProt P16422 24-314); assay: weak value amplification optical biosensor; multivalent Au NP-aptamer on exosomes; CW shift about 0.85 nm; Au NP-aptamer dispersed in ultrapure water, flowed over exosomes captured on Zr-ionized glass; pH and temperature not stated
T1 sequence: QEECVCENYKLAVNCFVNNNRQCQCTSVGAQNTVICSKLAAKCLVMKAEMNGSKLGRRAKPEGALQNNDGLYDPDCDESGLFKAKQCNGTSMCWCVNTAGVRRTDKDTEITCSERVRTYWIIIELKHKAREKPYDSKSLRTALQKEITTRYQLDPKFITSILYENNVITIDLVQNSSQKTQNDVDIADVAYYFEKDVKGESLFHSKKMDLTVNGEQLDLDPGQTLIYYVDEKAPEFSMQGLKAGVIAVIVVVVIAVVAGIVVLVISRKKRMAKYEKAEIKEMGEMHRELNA

[2] = biological target: T2, CD63 (on MDA-MB-231 exosomes) (UniProt P08962 2-238); assay: weak value amplification optical biosensor; TEM; multivalent Au NP-aptamer on exosomes; Au NP-aptamer dispersed in ultrapure water, flowed over exosomes captured on Zr-ionized glass; pH and temperature not stated
[3] = biological target: T2, CD63 (on MDA-MB-231 exosomes); assay: weak value amplification optical biosensor; multivalent Au NP-aptamer on exosomes; no significant CW shift; Au NP-aptamer dispersed in ultrapure water, flowed over exosomes captured on Zr-ionized glass; pH and temperature not stated

T2 sequence (P08962 2-238): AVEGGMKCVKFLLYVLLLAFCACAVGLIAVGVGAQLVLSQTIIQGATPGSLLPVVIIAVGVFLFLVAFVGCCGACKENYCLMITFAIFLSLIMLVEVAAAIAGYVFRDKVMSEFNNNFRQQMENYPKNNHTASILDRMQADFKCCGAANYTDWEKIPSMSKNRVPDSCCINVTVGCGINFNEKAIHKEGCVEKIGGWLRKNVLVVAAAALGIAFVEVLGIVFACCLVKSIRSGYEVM

CACTACAGAGGTTGCGTCTGTCCCACGTTGTCATGGGGGGTTGGCCTG (ssDNA, 5'-SH C6) [EpCAM aptamer]
binding result [1]: binds

CACCCCACCTCGCTCCCGTGACACTAATGCTA (ssDNA, 5'-SH C6) [CD63 aptamer]
binding result [2]: binds

ACTCTTCACCCGCACATTCGCATCGCCCAAGC (ssDNA, 5'-SH C6) [Scrambled CD63 (SCD63)]
binding result [3]: no binding
